{"source": "paper PMC2783455", "origin": "cited, not measured here", "target": "Calmodulin (UniProt P0DP23)", "data": [{"substance": "CyaA (from UniProt J7QLC0)", "values": [{"measurement": "Kd", "value": 200, "unit": "pM"}]}]}
